The results in this text go back to patent US20030138859A1, “Assay kits and methods for immune complex-mediate activation involving shed antigens” (BioCrystal, Ltd., priority 1999, published 2003).

Where only a bound is given, the exact number is not on record here.

The test system of test [1] is mucin-secreting human tumor cell line T-47D. In words: In vitro tumor cell invasion assay through matrix (Boyden chamber) with stromal cells. Format: cell-based. The settings on record: anti-sTn IgG1 mAb.
Excerpt: To illustrate this embodiment, granulocytes (polymorphonuclear cells) were harvested by positive selection from peripheral blood, and macrophages were harvested by peritoneal wash, from C3H-SCID beige mice in order to avoid contaminating mouse NK cells, natural Abs, or any immune recognition by mouse T or B lymphocytes. In this in vitro tumor cell invasion assay, used were mucin-secreting human tumor cell line T-47D, a Boyden chamber, and a commercially available basement membrane matrix preparation (“matrix”) which solidifies into a semisolid matrix. In this assay, tested was the ability of tumor cells (2×10^4 cells) to migrate through the matrix (layered into a 6.5 mm well insert containing a polycarbonate membrane having a 3.0 μm pore size) in the following conditions: matrix alone; matrix containing stromal cells (2×10^5 cells, granulocytes and macrophages combined); matrix in the presence of anti-shed tumor antigen antibody (anti-sTn mAb; IgG1; 0.06 μg); matrix containing stromal cells in the presence of anti-sTn mAb (0.06 μg); and matrix containing stromal cells in the presence of Fab fragments (0.06 μg) of the anti-sTn mAb. […] Invasion was measured by counting the number of tumor cells per well which migrated to the bottom of the chamber after 48 to 72 hours. […]
The target of test [2] is FcγRI on type 1 or type 2 endothelial cells. Put plainly: cell-based or functional assay.
In test [3] the target is murine FcγRI on murine cells (Met 129, B16F10, granulocytes, peritoneal macrophages, MH-S macrophages) (mouse) (UniProt P26151). In words: cell-based or functional assay.
Sequence of murine FcγRI on murine cells (Met 129, B16F10, granulocytes, peritoneal macrophages, MH-S macrophages) (mouse) (P26151 25-404): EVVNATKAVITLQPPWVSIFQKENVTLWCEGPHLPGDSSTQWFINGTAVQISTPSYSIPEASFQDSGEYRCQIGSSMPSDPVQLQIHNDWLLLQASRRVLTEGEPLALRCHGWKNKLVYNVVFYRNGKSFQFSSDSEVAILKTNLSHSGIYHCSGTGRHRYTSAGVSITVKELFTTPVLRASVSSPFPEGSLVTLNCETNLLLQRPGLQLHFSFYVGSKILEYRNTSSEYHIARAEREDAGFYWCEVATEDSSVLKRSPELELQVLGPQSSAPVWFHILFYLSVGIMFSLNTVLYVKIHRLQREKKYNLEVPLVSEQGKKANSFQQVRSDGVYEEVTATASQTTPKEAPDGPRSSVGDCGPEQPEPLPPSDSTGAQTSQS

For `[N-]=[N+]=[N-]` [azide, sodium azide], the “reduction in tumor cell migration compared to assay in absence of the substance” value in test [1] (0.001% per well) is given as around 5 fold.

“methoxysuccinyl-alanyl-alanyl-prolyl-valine-chloromethylketone [MAAPVC]”: the “reduction in tumor cell migration compared to assay in absence of the substance” value in test [1] (0.1 μg/well) is listed as around 5 fold.

Compound “immune complexes comprising bovine submaxillary mucin and anti-sTn mAb (clone B72.3, IgG1)” showed a VEGF production by type 1 endothelial cells (ELISA, 2 h) in test [2] above 5 pg/mL. Also, in test [3], the IFN-γ secreted, macrophages + IC (ELISA) is 5.3 pg/mL; the IFN-γ secreted, macrophages + tumor cells + IC (ELISA) was found to be 4 pg/mL; the IFN-γ secreted, macrophages + tumor cells + neutrophils + IC (ELISA) came out at 4.1 pg/mL; the IL-1β secreted, macrophages + IC (ELISA) was 2.5 pg/mL. Also, in test [3], the IL-1β secreted, macrophages + tumor cells + neutrophils + IC (ELISA) came to 22.8 pg/mL; the IL-4 secreted, macrophages + IC (ELISA) is 1.5 pg/mL; the IL-4 secreted, macrophages + tumor cells + IC (ELISA) was determined as 1.3 pg/mL; the IL-4 secreted, macrophages + tumor cells + neutrophils + IC (ELISA) was found to be 0.6 pg/mL. Further, in test [3], the IL-6 secreted, macrophages + IC (ELISA) amounted to 104 pg/mL and the IL-6 secreted, macrophages + tumor cells + IC (ELISA) came to 400 pg/mL.
